Literature values as cited in paper doi:10.1101/2025.05.21.655333.

Biological target: Lys287 (UniProt position 287, GGQGLKILIHV)
Test: kinetics
Details: The kcat/Km profile reports on free enzyme and free substrate

For “L-6-hydroxynicotine oxidase (Pyridine-LHNO) (Paenarthrobacter nicotinovorans)”, the pKa is given as 9.7.
